Laboratory results taken from patent publication US20230272086A1 (CHIA TAI TIANQING PHARMACEUTICAL GROUP, published 2023).

Tests used:
[1] = target: T1, cynomolgus monkey ST2 antigen (Cyno-ST2-his, Sino biological, 90915-C08H) (cynomolgus monkey, UniProt Q01638 19-328 (human entry)); test: ELISA, plate coated with Cyno-ST2-his
T1 construct: Bought protein; not shown: his tag
T1 chain: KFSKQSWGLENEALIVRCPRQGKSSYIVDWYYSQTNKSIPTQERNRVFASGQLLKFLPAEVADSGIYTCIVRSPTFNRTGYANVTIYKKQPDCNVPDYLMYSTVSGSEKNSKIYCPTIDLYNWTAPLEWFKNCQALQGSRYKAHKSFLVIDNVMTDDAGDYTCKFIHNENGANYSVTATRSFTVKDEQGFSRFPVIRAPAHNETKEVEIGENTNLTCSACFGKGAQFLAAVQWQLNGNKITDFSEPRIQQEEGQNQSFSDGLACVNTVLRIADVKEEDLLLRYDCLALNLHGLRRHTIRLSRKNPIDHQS
Description: ST2 binding screening and analysis of antibodies were performed by ELISA using hST2-ECD-mFc (for assays of chimeric and humanized antibodies), hST2-ECD-hFc protein (for assays of hybridoma antibodies) and Cyno-ST2-his (Sino biological, 90915-C08H) as antigens. A high-adsorption 96-well plate (Costar, 9018) was coated with 2 µg/mL hST2-ECD-mFc or Cyno-ST2-his antigen at 100 µL/well and incubated overnight at 4° C. After the antigen not adsorbed was well washed off, the non-specific binding sites were blocked with a blocking buffer (PBS containing 2% bovine serum albumin). After the plate was washed three times with a washing buffer (PBS containing 0.05% (v/v) Tween 20), the anti-ST2 antibodies (serially diluted 3-fold from an initial concentration of 10 nM to 8 concentrations: 3.333 nM, 1.111 nM, 0.370 nM, 0.123 nM, 0.041 nM, 0.014 nM, 0.005 nM, and 0.002 nM) were added at 100 µL/well, and the plate was incubated at room temperature for 1 h. After the plate was washed with the washing buffer, a horseradish peroxidase (HRP)-conjugated secondary antibody was added, and the plate was incubated for another 60 min. After the plate was washed with the washing buffer, the substrate TMB solution (Thermo, 00-4201-56) was added at 100 µL/well, and the plate was incubated at room temperature for 2 min. A stop solution (2 N H₂SO₄) was added at 100 µL/well to terminate the reactions. Colorimetric signals were generated and read at 450 nm using a microplate reader (PE, Envision). The data were analyzed using GraphPad Prism5, and the EC₅₀ values were calculated.
The humanized antibodies hz31C81-1.1 (the amino acid sequence of the heavy chain set forth in SEQ ID NO: 75 and the amino acid sequence of the light chain set forth in SEQ ID NO: 81) and hz31C8-1.2 (the amino acid sequence of the heavy chain set forth in SEQ ID NO: 77 and the amino acid sequence of the light chain set forth in SEQ ID NO: 81) were subjected to affinity, binding, blocking and cell function analyses using the methods described in Example 4, Example 5, Example 6, Example 7, Example 8, Example 9 and Example 10.

[2] = target: T2, recombinant protein containing hST2 extracellular domain with mouse antibody heavy chain Fc tag (hST2-ECD-mFc) (human); test: ELISA, plate coated with hST2-ECD-mFc, antibody heated at 72 °C for 5 min
T2 construct: Used for SPR and for ELISA of chimeric and humanized antibodies; also called human ST2 antigen
T2 chain: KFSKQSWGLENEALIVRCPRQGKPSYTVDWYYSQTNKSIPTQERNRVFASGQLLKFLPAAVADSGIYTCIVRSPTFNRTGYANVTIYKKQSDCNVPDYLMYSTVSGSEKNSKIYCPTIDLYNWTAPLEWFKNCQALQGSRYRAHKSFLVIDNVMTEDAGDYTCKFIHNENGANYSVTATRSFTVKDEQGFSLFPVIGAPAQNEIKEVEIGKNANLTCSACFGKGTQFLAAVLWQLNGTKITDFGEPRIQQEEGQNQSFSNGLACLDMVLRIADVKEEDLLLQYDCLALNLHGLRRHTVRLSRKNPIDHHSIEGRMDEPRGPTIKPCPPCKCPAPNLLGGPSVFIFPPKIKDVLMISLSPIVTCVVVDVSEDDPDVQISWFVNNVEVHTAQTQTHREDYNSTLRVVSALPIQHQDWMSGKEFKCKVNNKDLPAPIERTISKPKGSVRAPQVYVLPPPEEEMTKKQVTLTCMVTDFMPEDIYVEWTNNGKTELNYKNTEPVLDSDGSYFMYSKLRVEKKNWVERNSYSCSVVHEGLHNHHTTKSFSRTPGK
Description: (§1) The anti-ST2 antibodies were diluted with PBS buffer to a concentration of 1.5 mg/mL. After being treated at 72° C. for 5 min, the samples were assayed by ELISA for their binding activity for an antigen The ELISA procedure is as follows: A 96-well plate was coated with 2 µg/mL hST2-ECD-mFc as the antigen at 100 µL/well and incubated at 4° C. overnight. After the antigen not adsorbed was well washed off, the non-specific binding sites were blocked with a blocking buffer (PBST containing 1% bovine serum albumin). After the plate was washed three times with a washing buffer (PBST, PBS containing 0.05% (v/v) Tween 20), the anti-ST2 antibodies (serially diluted 3-fold from an initial concentration of 1.5 µg/mL to 8 concentrations) were added at 100 µL/well, and the plate was incubated at 37° C. for 1 h. […] After the plate was incubated at room temperature for 5 min, a stop solution (2 N H₂SO₄) was added to stop the reactions. The signals were read at 450 nm using a plate reader (PE, Envision). The data were analyzed using GraphPad Prism5, and the EC₅₀ values were calculated.

[3] = target: T2, recombinant protein containing hST2 …; test: ELISA, plate coated with hST2-ECD-mFc, antibody heated at 72 °C for 5 min; antibody heated at 72° C. for 5 min (Heated column, not the unheated 0.1428 nM)
Description: as §1

B1: Humanized 31C8-1.1 (antibody, human IgG2, kappa, V domains shown)
VH: EVQLVQSGAEVKKPGATVKISCKASGYIFIDSEMHWVQQAPGKGLEWMGAIDPETGDTVYAEKFQGRVTITADKSSSTAYMELSSLRSEDTAVYYCTGSTTDYYFAYWGQGTLVTVSS
VL: DIQMTQSPSSLSASVGDRVTITCRSSKSLLHSNGIIYLYWYQQKPGKAPKLLIYQLSNLASGVPSRFSSSGSGTDFTLTISSLQPEDFATYYCAQNLELPFTFGQGTKVEIKR
notes: also called hz31C8-1.1; hz31C81-1.1
An EC50 [1] of 0.0716 nM and an EC50 [2] of 0.0968 nM were found for B1 in this work.

B2: Humanized 31C8-1.2 (antibody, human IgG2, kappa, V domains shown)
VH: QVQLVQSGAKVKKPGATVKISCKASGYIFIDSEMHWVQQAPGKGLEWMGAIDPETGDTVYAKKFKGRVTITADKSSSTAYMELSSLRSEDTAVYYCTGSTTDYYFAYWGQGTLVTVSS
VL: DIQMTQSPSSLSASVGDRVTITCRSSKSLLHSNGIIYLYWYQQKPGKAPKLLIYQLSNLASGVPSRFSSSGSGTDFTLTISSLQPEDFATYYCAQNLELPFTFGQGTKVEIKR
notes: also called hz31C8-1.2; hz31C81-1.2
An EC50 [1] of 0.0746 nM and an EC50 [2] of 0.11 nM were found for B2 in this work.

B3: GSK3772847 (antibody STLM208 in CN104411333, prepared in-house) (antibody, human IgG2, kappa, V domains shown)
VH: EVQLLESGGGLVQPGGSLRLSCAASGFTFSIYDMIWVRQAPGKGLEWVSSIRGEGGGTYYADSVKGRFTISRDNSKNTLYLQMNSLRAEDTAVYYCARDPWSTEGSFFVLDYWGQGTLVTVSS
VL: EIVLTQSPATLSLSPGERATLSCRASQSVDDDLAWYQQKPGQAPRLLIYDASNRATGIPARFSGSGSGTDFTLTISSLEPEDFAVYYCQQYITAPLTFGQGTKVEIKR
notes: Control anti-ST2 antibody
An EC50 [1] of 0.242 nM and an EC50 [2] of 0.188 nM were found for B3 in this work.

B4: Chimeric 31C8 (antibody, human IgG2, kappa, V domains shown)
VH: QVQLQQSGPELVRPGASVTLSCKASGYIFIDSEMHWVKQTPVHGLEWIGAIDPETGDTVYNQKFKGKATLTADKSSSTASMELSSLTSEDSAVYYCTGSTTDYYFAYWGQGTTLTVSS
VL: DIVMTQAAFSNPVTLGTSASISCRSSKSLLHSNGIIYLYWYLQKPGQSPQLLIYQMSNLASGVPDRFSSSGSGTDFTLRISRVEAEDVGVYYCAQNLELPFTFGSGTKLEIKR
notes: also called xi31C8
An EC50 [1] of 0.069 nM and an EC50 [2] of 0.0863 nM were found for B4 in this work.

B5: RG6149 (antibody Ab2 in CN104334582, prepared in-house) (antibody, human IgG2, kappa, V domains shown)
VH: EVQLVQSGAEVKKPGESLKISCKGSGYSFTNYWIGWVRQMPGKGLEWMGIIYPGNSDTRFSPSFQGQVTISADKSITTAYLQWSSLKASDTAMYYCARHGTSSDYYGLDVWGQGTTVTVSS
VL: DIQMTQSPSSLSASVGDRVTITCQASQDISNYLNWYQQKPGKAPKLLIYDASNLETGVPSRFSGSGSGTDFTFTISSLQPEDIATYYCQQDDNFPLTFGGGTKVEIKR
notes: Control anti-ST2 antibody
An EC50 [1] of 0.178 nM and an EC50 [3] of 1.06 nM were found for B5 in this work.
